The record followed here is patent publication US20160215045A1 (Eli Lilly, published 2016).

Assay [1] deals with T1, human VEGFA165 (human, UniProt P15692 207-395). Put plainly: cell-based or functional assay.
In assay [2] the target is T1, human VEGFA165. Put plainly: Biacore SPR at 25 C; antibody captured on Protein A, hVEGFA165 as analyte; value called an upper limit. On the procedure: (§1) Immobilization of soluble Protein A (Calbiochem #539202) on a CM4 (GE Healthcare #BR-1005-34) or CMS (GE Healthcare #BR-1000-99) is prepared using EDC/NHS amine coupling method (GE Healthcare #BR-1000-50). Briefly, the surfaces of all four flow cells is activated by injecting a 1:1 mixture of EDC/NHS for seven minutes at 10 μL/min After which, soluble protein A is diluted to 50-100 μg/mL in 10 mM acetate buffer, pH 4.5, and immobilized for seven minutes onto flow cell (Fc) 2, 3 or 4 at a flow rate of 10 μL/min. Unreacted sites still remaining on the chip surface are blocked with a seven minute injection of ethanolamine at 10 μL/min Running buffer is HBS-EP+ (GE Healthcare #BR-1006-69) with addition of 100 mM NaCl. Compound samples are prepared at 1 μg/mL by dilution into running buffer. […] Resultant data is processed using standard double-referencing and fit to a 1:1 binding model using Biacore 2000 Evaluation software, version 4.1, to determine the association rate (kₒₙ, M⁻¹s⁻¹ units), dissociation rate (koff, s⁻¹ units). Calculation of the equilibrium dissociation constant (KD) is calculated from the following relationship, KD=koff/kₒₙ, and is presented in molar units.
Background: SPR reads the build-up and loss of mass on a sensor chip optically.

In assay [3] the target is T1, human VEGFA165. As to the kind of experiment: Biacore SPR at 25 C; antibody captured on Protein A, hVEGFA165 as analyte; 1:1 fit; off-rate too slow to quantitate accurately. On the procedure:
as §1

The target in assay [4] is T1, human VEGFA165. Put plainly: Biacore SPR at 25 C; antibody captured on Protein A, hVEGFA165 as analyte; 1:1 fit. On the procedure: as §1
In assay [5] the target is T1, human VEGFA165. Put plainly: KinExA kinetic exclusion assay at 37 C, solution equilibrium with hVEGFA165. From the text: (§2) A KinExA 3200 instrument is used to measure binding kinetics to human VEGFA165. Briefly, human VEGFA165 is covalently coupled to NHS-activated sepharose beads (GE Healthcare #17-0906-01) and the binding of free Mab to the conjugated beads is detected on the KinExA 3200. […] (depending on the temperature analyzed) in Casein Blocking Buffer (ThermoFisher #37528). […] It follows that the relative intensity of signal generated in these steps is proportional to the degree of free/uncomplexed compound present in each solution tested. The resultant composite set of fluorescent intensities is plotted as a function of the concentration of human VEGFA165 present in each discrete sample and fit using the N-curve analysis software (KinExA) to a standard two state binding model to determine KD for the given MOI. Statistical confidence is reported by calculation of the 95% confidence intervals.
In general terms: In KinExA the mixture passes briefly over coated beads that capture the unbound partner.

In assay [6] the target is T1, human VEGFA165. As to the kind of experiment: KinExA kinetic exclusion assay at 25 C, solution equilibrium with hVEGFA165.
Text: as §2

T1 sequence (P15692 other isoform, or with tags, fused parts or gaps): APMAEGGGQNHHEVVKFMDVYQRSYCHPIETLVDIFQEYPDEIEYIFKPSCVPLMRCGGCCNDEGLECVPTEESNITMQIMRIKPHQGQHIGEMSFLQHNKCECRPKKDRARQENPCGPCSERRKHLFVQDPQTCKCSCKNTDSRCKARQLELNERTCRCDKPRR

B1: parental anti-VEGFA antibody of Compound A (antibody, human IgG4 S228P, kappa, F234A L235A, V domains shown)
VH: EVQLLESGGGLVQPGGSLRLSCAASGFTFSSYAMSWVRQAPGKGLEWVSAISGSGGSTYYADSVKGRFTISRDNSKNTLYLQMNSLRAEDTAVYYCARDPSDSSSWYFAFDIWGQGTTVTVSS
VL: DIVMTQSPATLSVSPGQRATLSCRASQNIRNNLAWYQQKRGQAPRLLIYGASTRATGIPDRFSGSGSGADFTLTISKLEPEDFAVYYCQQYGSSPRTFGQGTKVDIKR
notes: also called Parental VEGFA Ab; parental VEGFA antibody
By Kd is commonly meant the concentration at which binding is half-saturated. The low end stands for higher affinity, the high end for lower affinity. The term koff denotes a measure of how fast the partners let go of each other. The kon is a measure of how fast the partners come together. Lower therefore signals slow association. Consider B1, for which the “IC50 for inhibition of VEGFA165 induced proliferation of ECFC (3H thymidine)” value with human VEGFA165 [1] was found to be 1380 pM. The “IC50 for inhibition of VEGFA induced cord formation in ADSC/ECFC co-culture (total tube area)” value with human VEGFA165 [1] is 1570 pM. For the same molecule, the Kd was at most 13.2 pM with human VEGFA165 [2], 183 pM with human VEGFA165 [5] and 27 pM in the assay with human VEGFA165 [6]. Moreover, in the assay with human VEGFA165 [3], the off-rate (koff) is 3.9e-05 s⁻¹. The molecule also showed a kon in the assay with human VEGFA165 [4] of 2.93e+06 M⁻¹ s⁻¹.
